Results on 69 sequences are retold here after the domain aggregation screens of Martell et al. (2025).

Where only a bound is given, the exact number is not on record here.

A short description of this data set: soluble fraction after stress (log2 fold change); higher = more stays soluble; pooled small domains, quantitative proteomics. The conditions noted are these: stress: pH 4. Put shortly:
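Following acid stress at pH 4, the amount of each small protein domain still soluble was measured in pooled custom libraries by high-throughput quantitative proteomics. Its fold change, on a log2 scale, is higher when more of the domain stayed soluble. This fold change is taken as a measure of aggregation propensity.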

In the case of “HMTRHIQVNDSIASTPIEDVYFSTRTYNALLNNGISVIGDLSKYTHDDLYASFQGLGRAGVLEIEAYLRQD”, the “soluble fraction (log2)” value is -1.32.
Next, “HMTRHSSVDFAGYILRNKENEPIFGFGKHKGKTVVEVLQREQGYFGWLMEADFPLYTKKVLTAIRLNTLNS”: 0.316.
Under “HMTRLDLQNAFRVLPPEIQPAAVLFFLQERKQREIAKILGIGLPLVKYRIRKARELLAQFLRKEA” stands -0.073; under “HMTRNEFLTALRGRLSALPKEEQDAALKYYEEYFDEAESEEDAARQLGSPDSIAEKILADYA”, -0.00949; under “HMTRQNTAVQQSDMAHHKASELTEGMSIVHSHFGRGTIISIETADDPRVTVDFSSEGRKTMLLRFAKFAIE”, -1.08.
As to “HMTRQRQLIYNIIQRADDHPTAEMIYARAKAEMPSIAFGTVYRNLKLMVDAGEILHIPVAGEPDRYDK”, the “soluble fraction (log2)” value came out at 0.142.
As to “HMTRVANIPYSEFLKLVETDKINDVSMVGKTISGHLDDGTKFSTYTPPNDPNLIDKLSKHNVIIKAGPE”, the “soluble fraction (log2)” value is 0.0499.
Next, “HMTRVDKLQTWLSLPREQRDWDEGALMLLQLTGNKIMYRNLSVNPEGKANFIEGKLQQYLEFRLA”: -1.16.
For “HMTSAHEKAFDLFDGGKLSEKALLIAVGAERSGFELAGDLRLRTLTAFEDGRLSEDAMIKLL”, the “soluble fraction (log2)” value is -1.5.
Take “HMTSAIAEGTVIRLTQSTNIRESMSEDAPKVATAFSGEKVTVIMSYAEGWTKVTYGDKTGYIKTELL”: the “soluble fraction (log2)” value was -0.443.
Under “HMTSAPHHIAAVLRDAIYRGVLEEGGPLHQARIAQSLGVSPIPLREALRLLETEGLVEFRGYRGAFVT” stands -0.8; under “HMTSDADSLRDKTGYVAEQVTSKGGKVNLYDGGFDSLYSARSTGETISTGTEIRVVDPGGGNMLVVEPV”, -0.356.
Take “HMTSDYEPSEKDEKAVIGIAFLRNTDVYDVDIDKAEAIKALKANNDIYQKFVKFFPFVKLPSLYDDFQ”: the “soluble fraction (log2)” value was -0.109.
Under “HMTSGPAWPALSAQQRSVLAPLQRDWHTIDAARKAKWLEVAARFPSMPAEERQRVQERMAEWA” stands -0.0144; under “HMTSKIIIGDSYSKINKLLGEPENMKKRKFLDNEYLMVLYSINKKNYRLYFKDNILFELEDI”, -0.582; under “HMTSLQDLLEELRVIRETLTGSQVLSDMQLFSQLRNLGDIKAALTRMQDNPAAARMVGEVDKLLETMFAS”, -1.56.
Regarding “HMTSLSYINDLVTGATAQGLYRIVVPNQFMDDNMANVLRRTYGYQVQSRTSLMGTFDDYIISWAPPM”, the “soluble fraction (log2)” value is -1.59.
Next, “HMTSMTHLGRHPDSEISLDDISVSRRHAEIERQGHEYVLRDSGSLNGTYVNQQRVDSVVLQQGDEIL”: -0.277.
On to “HMTSPLQIHPNPATKHIELGLESPEVVLIKDINGKTVYQELVAPNQYIDIEHLKNGIYFIESKNKFGKLIK”, for which the “soluble fraction (log2)” value amounted to 0.29.
Next, “HMTSPNPLIRSTTPGLETNKKGGIIVDENEMSTRENVFAGGDAVTGAATVILAMGAGKKAAAAIDAKLQN”: 0.22; “HMTSPQGIERFLASGVIEGVGKAMAARIVAVFGGQTLEIIEKQPHRLREVRGIGVKTAEKIHASYQEKA”: -0.203.
For “HMTSPVEDLLDKAIQLYREENFEEAIAKWEEVLALDPSKLEAKFNIEIAQDRIKEKQIQEDLKSS”, the “soluble fraction (log2)” value was -0.935.
Under “HMTSQVTVHVVGAVEKPGVVTLDAPSRVQDALEAAGGALPEAELSGVNLARELFDGEQIVVPAQGEDV” stands 0.0598; under “HMTSSVIIPKLIGKTEEEAKVALAGLNVQVLYETHGDQANGIVIKQSFEEGTKVIKGVSIVITVNKVS”, -0.256; under “HMTSTEQEILIEHMVDRLPALRKKYGISQTELGEKIGLSRQTISAIERKTTPLTWTTMLAILMFFT”, -0.425.
Under “HMTSTSVKYVNSSSGLNVRKGPSTSYDKVTTLVNGTKVTVISTNNGWSKITSGSITGYVSSQYLSSSS” stands -0.284; under “HMTSVAYVIDRINKIQNVYSELEALGLKDEFEKILSNIEDLSKKDIREIKTLLKTKGVIKNLDDLNVKL”, -1.24; under “HMTSVQDLLRNGDRVGYQNGSTVKYWLEEMGFHKKDLLGYVTVEEYAEALQRGSGNGGVSAIVD”, -1.7.
Next, “HMTTARERVYKTLQQWIVNGTLLPEERLNDVELARYFSVSRTPVREALQMLAEQKLVKMVPSSGTFVA”: -0.0644; “HMTTELDTTAITPIIQKVLKANPDVVAKYKAGQQQVIGFLMGQVMRELSTKPNPKELQSLIVAQLQQA”: -0.0703; “HMTTGEIIQRERTRLGLSQEKLAEQVGVSRQAVSKWELGDAVPDTDKLVPLARTLGISVDTLLD”: 0.0499.
“HMTTGGAEELGRTERKIVEQVGRGLSNREIAQVLGLSEGTVRNYLSTILGKLGLRDRTQLAIWSVQTGFAA”: the “soluble fraction (log2)” value was -0.371.
For “HMTTHERHEIIELLRQVGDPMRPKEISEALGKPSGAIRFLLSKLTEEGAIKKTGYGQYTYIP”, the “soluble fraction (log2)” value is -0.0635.
Consider “HMTTLTPIGKMKGEIDGDFEAFYLAVDKDGQVYLNRDPDYSENRYEKSRGWELVTREQLAVYEKELHFIP”, for which the “soluble fraction (log2)” value was -0.25.
Consider “HMTTMYKSDVKGINYDVKAKSWFLRITFNGNQIPIGHFKTEEDAINVKQQLIPYIESKDYTSILAVKAKYS”, for which the “soluble fraction (log2)” value was at least 0.43.
Under “HMTTPDIIVPDVKGMTVAEAQKALEEKGFKVKLEEMTQEGAVPGDVIRIDPVAGTKRKEGAKITLLIARG” stands -0.0525; under “HMTTQTGTVKWFNEGKGFGFIAPDDGGKDLFAHFKEIQGTGFKTLAENQRVEFEVTQGQKGPQASKI”, -0.469.
Under “HMTTQTTKYVNTTAGLNVRTGPSTSYAKIVTLSYGQSVNVLSTSNGWSKINYNGSTGYVSSQYLQSTKPS” stands 0.0265.
Next, “HMTTSNPMNVTSAEAAFDNGTDRLNAFISGRTTSEERSTYFPLFVRETKEDFLRAVGRFNEYIANHG”: 0.0839; “HMTTTAGTAVVQTGNSGKLNLREQAYSNAGILGRYSNGTIVTVLQKGSAWSYVEVQGQKGYMMSKFLRFT”: -0.386.
Turning to “HMTTTFGWENLVGEKGIAATDLHPSGWVTVKDQRVFVVSEGTFIEEGKEVEIMNVDGNRIVVREFKN”, the “soluble fraction (log2)” value is -0.46.
With “HMTTTPTSQMVTELRSRGWTLRALAQRLGVGHASINRWANGVTPDRDLVAALRALVASGEVP”, the “soluble fraction (log2)” value is -0.00752.
Take “HMTTTYEINDEMLKPLILEIFNKSKQRFGSTKIAPVLKREGYTASIAKVKTLMNELGIKPVNA”: the “soluble fraction (log2)” value came to 0.206.
Next, “HMTTTYTVPKVTGMTLEEAREDPDVVGRFTIVEGEKVTSDTVPVGQIVSQEPAAHRQVGEDGLTITVNIS”: -0.2.
Next, “HMTTVKDRVYEILKREIVLGKLKPGEPINIAVLSTKLNISSAPLREALNMLSRDGLVTLNPRKHAAVSE”: -0.0431.
With “HMTTVRLNATVPPELALQRLDRVARELFPEYSRNRLQQWIRSGELLVNGSPSGVRDKVPLGAELAVAANLE”, the “soluble fraction (log2)” value is -0.343.
Under “HMTTVSINTTGIITASTIRASSALYPPLYTTVQRDAGTFSAGAIIFNSTTSKLEFYDGTTWQSLPG” stands 0.285; under “HMTTVTVGSKVRVKAGATFSDGAKPFAEVYNTVYDVQLLSHNGKEARIGIGDQWTGWIYISDLYLANQPAP”, -0.101; under “HMTVEMYIGKTANVLETVTENNGRIAIFGEEWQAKSLNGETIEKGAQAKIVKNDSIIMYVVPI”, -0.367.
Under “HMTVGENTYELIKKDIIFGVLPPLKKLKLQELKKIYNASVSTLREILSRLTGDGFVFSEEQKGFYVSPV” stands -0.33; under “HMTVKEVGYDTFLTMLDKKEIKQVQVEDNQIIFSDNADPVNYYKTGVFNDPDLVNRLQDAGVEFG”, -0.37; under “HMTVKEYNRAVDEYSDAVWRFIRGNLRDEDRANDIVQDSFEKLWMHVTEIDYSVAKSWLFSTAYNNMIDI”, -0.899.
Next, “HMTVKKLTINEDNSGRRIDNYLLSIFNSLPRSKIYNIIRKGEVRVNSSRIKPNYRLEQGDLVRIPPNLEFT”: 0.0853.
In the case of “HMTVKRNLVQEILRLKFRHPENFMPNRAFYQEVGINQMRWWDIFYGRKNINQEEYIALSKYF”, the “soluble fraction (log2)” value was -0.352.
Next, “HMTVLPTEQDAKALVGLGEEEAAKIVEGNGWTYRIGSRDGEQFMLTEDFVTSRLTLGIEKAIVMTATI”: -2.11; “HMTVLSKEEFVAIEQRLLQLLGTAPVDNKILLQQLSGIKKEKAWKVLSFLQAENKIGMDATGRVYL”: -0.697.
Under “HMTVPDVKGMGARDAVFLLETLGFKVRINGIGQVYEQSIDPGKSYSKGEFISLRL” stands -0.81; under “HMTVPNVVGQRILAAQDILKNLGLKVLVDTNLPNSQWGLRNVKSTNPGAGAVVRVGDTVTLIAR”, 0.124; under “HMTVPTEVALELMHATALEDNEQRILYIASFKEKHREHLHATIEVDGQEVTLARYADLVATGAYL”, -2.15.
As for “HMTVSADIIQKIIKTSTTDENIITIDSISNSISKLALSKITAEDIIEILEASSLVLRNSNGSWTVL”, the “soluble fraction (log2)” value is -0.716.
On to “HMTVSKLKVINYTIRNGDSLWTISRKFNVTVDKVKEWNGLSDRTLLQPGQKLTLYVDPTIQISH”, for which the “soluble fraction (log2)” value was -0.406.
Under “HMTVSLLQTRQRLQALADLGHYKGDLGAAWGPDAIEALKKAQATLGVTVDGKWGPQTEDAIQVALKVQ” stands -0.0459; under “HMTVTISPGYEGRLLRSYLKNTLSLSTSALARLKTREDGITVNGVRVTVRYVLHAGDLLQLAVD”, 0.22; under “HMTVVHRQVHLQPDQGAFRAALYSHKAVLSEQTDDQGAINLEIRLPESDFLRLLNSSGLKLQDLVP”, -0.512.
“HMTVVSVDDQASASSEAIRTKVAGDSAARMSVDAGGKITWGAGSASGDVTLYRSAANTLKTDDTLVAT”: the “soluble fraction (log2)” value came to 0.109.
On to “HMTYADTRDLLIRRGMELLTEQGIAATSIERVLQSTGIPKGSFYHYFATKHDFTLAVMDAYHHY”, for which the “soluble fraction (log2)” value is -0.324.
Next, “HMTYAQQIGARIAFLRRLKGLTLAELAERVNKHKSTISKYESGQIIIDIESLKEVADALGVDVAQIVE”: 0.187.
For “HMTYFDIAPELLTVYKEINDIPRDINQIVRKTGLSINEVSYKTMILQLEDKIVELPGQRFIRNS”, the “soluble fraction (log2)” value is -0.815.
Under “HMTYKHLTIDEMKRFLSTREDSQSALVQFARVENVVGNRKGKYAVIKKWFLKNYKEEYNAFLS” stands 0.0391.
